Measured values reported in the DeepSol protein solubility set.

Experiment: soluble on expression in E. coli; label from the status in PepcDB or PDB records

Sequence	soluble on expression in E. coli
MIIKRTPQAASPLASWLSYLENLHSKTIDLGLERVSLVAARLGVLKPAPFVFTVAGTNGKGTTCRTLESILMAAGYKVGVYSSPHLVRYTERVRVQGQELPESAHTASFAEIESARGDISLTYFEYGTLSALWLFKQAQLDVVILEVGLGGRLDATNIVDADVAVVTSIALDHTDWLGPDRESIGREKAGIFRSEKPAIVGEPEMPSTIADVAQEKGALLQRRGVEWNYSVTDHDWAFSDAHGTLENLPLPLVPQPNAATALAALRASGLEVSENAIRDGIASAILPGRFQIVSESPRVIFDVAHNPHAAEYLTGRMKALPKNGRVLAVIGMLHDKDIAGTLAWLKSVVDDWYCAPLEGPRGATAEQLLEHLGNGKSFDSVAQAWDAAMADAKAEDTVLVCGSFHTVAHVMEVIDARRSGGK	soluble
MDFGKTNSKLFVFGQDGGILDERRTQPKWTHQDGFSVLDEAALHDWALGAVTEAVENHGVEGVMVSGHGCTFALVDDAALTHPILDYEQEPPAEIAARIDHRIPDFAETFSPRLPLGFNYGRHMLWVQEVDPDAFAAAKSILGYPQYWSWRLGGRPVSEVSYLGCHSHLWAPRSQDFSSLVDAEGWRGQMPAFARAGAVIGERRLGSSSRPIAIHNGVHDSNAALHAYRRQELGLEHHHHHH	soluble
STVLIVSQEHQKIKTYINTVADRGVTEIPVKGGYSGTNQIMLMTTIAGYEFAKLQEAIAEIDETAFITVTPTSQASGRGFSLQKNHGRLDEDILMPM	not soluble
SLPPLNSLISQFEGRVYDQIINFNWHSKPENLKVIIIDIDEKSLEQEGRWPWPRSKIAELLNKLQENGVVTVGFDIVMSEAETNYALGLIEKLSQFSGKMTTDQKQLIATLNSVANQVDNDQTLVNALGKNNAILGFFFHNSEGIRKGSLPPPLRDTDSNPLLASKLSVYQFTNFNGNLAAFTAAATSGGFVTNLPDKDGVVRHALLLANYKNNLYPSLSLAIAMNYLLTDKVNLKKYNNELTGIELDGLQIPTNRKGQILIPFWGGPGTLNYYSATDILNNQFNPDELAGSIALVGSSITLLSDLHHTPVAQLFPGVEIVGNIVKGLVEQKIPREFDWESLQG	not soluble
SLISYCSDSGDENISCTKKMVVTVTVEGEQLPGEESLLFLNSATDMTVNNGTSVQFSPLRITTSRSAVRYRYPLFYVQNYNAKPYEATVKGSLLNQCNADFNADTATCGLAYDAAGKAIPYSQGFCCDCSMCQTLGLCQPDARANAACNVFGKYTTASCLRFAQRWYSGYTIGGYMTWYTVNLTLSRNVSDSGGAGAAEKVVMRLSPSNNGEVAGEGWDVMARIVGTYAPVDQPLDLTSRMLFAPAIPPNDARVQAGAAEWLLLPTNLVTLDGRECDKVGVSYEAFASQGNKCNLRPGSCLSSQLEDYRTADLQRIAAGNKGQYMATSFGDFNLENDAATSPYISYLAASPAATMISITVSADDLEYTVGLASGKIISTDMNKPTLQAGTADGVMTVMVRNTAAVTGRLVVGTLNCSDGVF	not soluble
MKKFDGVIFDMDGLLFDTELIYYTSTQKVADAMGLPYSKEVYLDYVGISDEEVQENYRRIYASYGHDTVEEFIRRSYDDTLQEFRSGNVPLKPGVVEFLDFLDDQKIPRLVASSNVRPAIEMLLSHAGIQDRFVGIVSAEDVKRAKPDPEIFQKARQLLGTEAPKTLIFEDSFHGVSAAHSAGIPVIMVPDLLQPTEVIQEKTLHVLESLHQAPHYLK	not soluble
MAHHHHHHMEDAFAGSCVQSLFEPKADLSLCVNKSIKLFLKEVPIPPADSVDRADEQNSTDAKKEQRESALSENLSLLNGYAYFNRIKSNINLLHTELHGIKRDFLFQKKQTKKNIQKLKIVRKQNKIYQSVLQEIKKDRRRKETYELLCTEIQKLEEVNYLNKKQQMEKRDIEDLQQKMKDIENAIRINDENIQRTIQQISDIVSTNLQP	not soluble
MGSDKIHHHHHHMIMRILVVGDFLKTSGMTRYIFNVIGRIHASDFQVDALSISGKDECKGQVKKMGWGFYCVQAANNNLLRHLVQSFIFFKKHAKDYDVIHFNESALWNFLPIIFAHLFGAKRIILNSHNTYFATEGSKKLYVVLEIMHRIGKWLVAHVVAQNIAVSEEAARWMFTRKTINRHEYKIIVNGIELEKFAYNKEQRFKIRKSLKINEDTFLFGNVGIFNARKNQLRLLEIFNELVKRNLDVKLVLVGDGPIKEAIVAKISELRLADKVVMTGLINNTNEYYQAMDGVIMPSLNEGLSTVLLEAQTSGLQFILSEGLPLGNHIDLLVHEVPLSESNRVWADVVEHNMNREKREVFGSIMQKKGFDVELSAKELYQTYLEER	not soluble
MGSDKIHHHHHHMKEPTIVKKEAFQAIGISITTTNEKEASTEGKIPGLWNRYFHEQIMHHIPNQQTKETFAFYSNYESDETGTYQFTIGMPVSSLEDVPENMTTLTIPAATYAVFTTRKGPVAEVVCEAWEYIWKWSKGNKRAFTIDFELYDEKATDPNNAQLDIYIALA	not soluble
MTDLHPVKEETFNITAMNNIDPKGFHRDVDTYSETEFGLYMARGANHPRFGYLESWLLPEINLRANIFHFRDGIDEHQDFYFDIAEISHDGHTWHTRDLYVDLISVVGEPVRVDDTDELAAATSAGLITAEDAEKAIDATLLAVDGITRHNDDPMAWLAAMGYPLTWAKNITLKEAE	soluble
MPQSFTSIARIGDYILKSPVLSKLCVPVANQFINLAGYKKLGLKFDDLIAEENPIMQTALRRLPEDESYARAYRIIRAHQTELTHHLLPRNEWIKAQEDVPYLLPYILEAEAAAKEKDELDNIEVSK	soluble
MIRMETYPHNFEEKVGFDEIRRLLIGHCHSPMGSDRVIQMHALARHNEVSRLLAETEEMQIILREEDLFPDLRLADVREALNRIRPAGTYLEERELQDVATALRTIEALIRFFHVGEEEEGKDTPYPHLQTLLSEVIVFPDLEKRISSLFDRFGKMKDNASPELMNIRRELSSIEKNISRTLQGILRLAQSEGWVDQGVQPSVRDGRLVIPVAPAHKRKVRGIVHDESGTGKTVFIEPAEIVEANNRIRELEAAERREIIRILIEVCDALRPHIHDLIDCYEWIGLFDFISAKARLCGEWNAIRPILSKKPEIRWEKAVHPLLLRSLRAHGRDVIPLDISLTAPDKRILVISGPNAGGKSVCLKTVGLLQYMLQSGLPIPMSPDSTAGIFGKLFIDIGDEQSIEDDLSTYSSHLRNMKHFARHTDKNTLLLIDEFGGGTEPQIGGAIAEALLHRFNEQEGFGVVTTHYQNLKAYAEETPGLVNGAMLYDRHEMRPLFRLSIGRPGSSFAIEIARKIGLPEEVIAEATDKVGTGYIDMDKYLQDIVRDKRYWETKRTNIRKEEKRLEGAAAEYESRLESIKKERKQILDEARQQASVMLSQSSAQIEKTIRDIKEAQAEREKTRRARQELNDFRETINKEEIEKEERINREIEKIKRRKKRKQEKAASRSAETPVQPKLQEVPQPPVIQVGDTVRIKGQTAIGSIIDMNDREATIALGMIKTTVPIDRLEPAKPVKERKSEPVSGASARMIIDRIHEKRLDFKQDIDLRGMRVNEAVQAVMYFIDDAIQLGIPRVRILHGTGTGALRTVIREYLATVNGVRHFADEHVQFGGAGITVVELG	not soluble
MVTQNKKILIITGSFGNGHMQVTQSIVNQLNEMNLNHLSVIQHDLFMEAHPIMTSICKKWYINSFKYFRNTYKRFYYSRPNELDKCFYKYYGLNKLINLLIKEKPDLILLTFPTPVMSVLTEQFNINIPIATVMTDYRMHKNWITPYSQRYYVATKDTKDDFIEAGVPASYIKVTGIPIADKFEESIDKEEWLSQQHLDPSKPTILMSAGAFGVSKGFDYMINNILEKSPNSQVVMICGRSKELKRSLKAKFKDNPSVKILGYTNHMNEWMASSQLMITKPGGITISEGLSRCIPMIFLNPAPGQELENAYYFESKGFGKIADTPNEAIDIVSDLTNNEETLKVMSSKMLESKVGYSTRKICKDLLDLIGHSSQPDEIYGKVPLYARFFVKLEHHHHHH	soluble
MQLEYPLTNHMKGNIVLTQEKTAIAYYRVRSETVMLTDVEKKLKTKRKVARALNRLKANDGFEINLLPVNADIRGKMGAMRSLIDSNNYEVGVDKLMKTAMVLEQEMGMVYEYTWIIGVPLIKKDLAVDLKETVTNSISNVSEKFVKGLGFDVELAEYWEKDYREQELEVYQNLSELLIERLTEDELYYYQAYQFLKNIPHERQDVLSSQNLDNLMATKIKPLFGGGLHLNCDYGESYISYLPMGDVGVFLDGNHFLEVVQKMPFPVEVKIQATFAESKGQLALSGRSSRARTRTKNIMQEAHLAGSKQKRKIVEGQLSLDDLDQKIDDGVDIIDWKAVIVVSGSTKKQMRARKKYLINRFDSLDIPLIKATFDNPYLFQSTLFGNFLRMQTSRWQHTSTIESFAELNFFTSLHAGTKLGFYLGRVDTTLEEKEDRKSIISSSKNLIFMNMLLANKEGVDGKKTNNPHWALTGDTGNGKSVTAKTLFMQMALLKDRVLYIDPKKEMRKQFMYTINDPEYQKKYPLDVDFVKSFNFVTLDVRDTKNHGVLDPIVLFDETEAIATTKAMLTNIYEGTWNLKQKTEINEAIAKVVLERKEGKKVGFWHVIERLVESEISDVKDMGRFILSTVKGSVLELAFSHGDVEGLSFDKKVTILEIEDLDLPTDKNENLDENKRLSVTLMFALGTFCSKFGSRNPKEETVTFFDESWIFQSSPEGKAILKSMKRIGRSFNNFLVLITQSTNDLDDSEDGTGFGTVICFDEVQNREGVLKYLNLPVNEINMKWVSNMVQGQCLMKDMFGQTNRIVVHVIFEEWLELFKTVDDTEASKMENRFVA	not soluble
MSNSLEERLRANSSAFDGLLALIPAKYYYDEKSQEQWKAKKKTKEQSKNDKLKKLDPEQRDDETSSTLEVMKKKEKDAKPVVLPGEKFKHMKMQKQKEATSKVEGDSDLNVEVNDPMIIAPDEDEEEEEDIKVIFDDEGNEIPLESKKDTTEPDRSVEKKSITEEEKLQRKKNLEALRSKLQAKISDMKSKRKAPGSREAILAQRKRKEELKKRKRLESEQEQDQDEIASDSDMEDIDSDLENNSKKRFKKGKKDSEINADGVMFQNIIFDDGARATSDLQRLRKAGRTKGPAKNDVKSHLKLLEAKKNKMEAKDELEQIKQKEKEKWQKAMLQAEGIKIRDDEKLLRKAIKRKEAQKRKSAIEWSERKRVVEDTISERQKRREENLRIRKDNKGKKRNKQEKMKRKYVGSAVPKKRAGFEGRLKTGKKKGGPK	not soluble
MGSDKIHHHHHHMKRAVGDLIEETMDIVLANPRGFCAGVDRAIIIVEQALEKFGAPIYVRHEVVHNKFVVDDLKKKGAIFVEELDEVPAGNTVIFSAHGVSKDVRAEAEARGLQVFDATCPLVTKVHLEVAKMRASGKEIIMIGHKGHPEVEGTMGQAEGGMYLVESPEDVAMLEVKDPSQLAYVTQTTLSIDDAAAIVSALKAKFPEITPPRSDSICYATQNRQDAVKVMARDCDLVIVVGSPNSSNSNRLREVAQNQGVESYMVDNASFLDPAWIVGKKRIGVSAGASAPEVLVQEVINKLRALGAADVQELNGVVENVVFKIPRNLAEA	not soluble
MDLSPLDVRYQEFPRAFRGYHRGAVREYLARVAEAMEALIRENEVLKERLRALEEENARLKEAEGELKRAVVAAERIARELKAQAEREAELLRKEAQAAKERLLQEAAQELKRLRAEIERARQEKALFLGQVRALFEGYLEALKRLEKTP	soluble
